Laboratory results: patent US7135170B2 (ZymoGenetics, Inc., priority 2002, dated 2006)

T1: zcyto20 (Homo sapiens, UniProt Q8IZJ0)
T1 sequence (Q8IZJ0 26-200): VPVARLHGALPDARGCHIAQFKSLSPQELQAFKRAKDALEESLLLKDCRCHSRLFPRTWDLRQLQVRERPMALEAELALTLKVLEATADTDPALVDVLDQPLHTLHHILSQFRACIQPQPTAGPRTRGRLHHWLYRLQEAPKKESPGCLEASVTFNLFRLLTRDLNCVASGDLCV

T2: zcyto24 (Mus musculus, UniProt Q4VK74)
T2 construct: The mature polypeptide comprises amino acid residue 29 (Asp) to amino acid residue 202 (Val)
T2 sequence (Q4VK74 20-193): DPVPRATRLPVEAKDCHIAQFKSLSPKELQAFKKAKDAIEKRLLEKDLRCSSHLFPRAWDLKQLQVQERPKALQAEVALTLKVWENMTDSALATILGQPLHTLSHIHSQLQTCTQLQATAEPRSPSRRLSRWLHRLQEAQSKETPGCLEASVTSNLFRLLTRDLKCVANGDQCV


Key:
zcyto20 = molecular target: T1, zcyto20; assay: Soluble receptor inhibition of ligand-induced ISRE signaling, 293 HEK cells overexpressing zcytor19: zcyto20; format: cell-based; details: for Percent Inhibition of Ligand-induced ISRE Signaling by Soluble Receptors: ligand Zcyto20 10 ng/ml, soluble receptor 10 micrograms/ml, 4-hour; for inhibition of zcyto20, zcyto21 and zcyto24-induced signaling: text summary over the three ligands
Description: (§1) A signal transduction reporter assay can be used to show the inhibitor properties of zcytor19-Fc4 homodimeric and zcytor19-Fc/CRF2-4-Fc heterodimeric soluble receptors on zcyto20, zcyto21and zcyto24 signaling. Human embryonal kidney (HEK) cells overexpressing the zcytor19 receptor are transfected with a reporter plasmid containing an interferon-stimulated response element (ISRE) driving transcription of a luciferase reporter gene. Luciferase activity following stimulation of transfected cells with ligands (including zcyto20 (SEQ ID NO:18), zcyto21 (SEQ ID NO:20), zcyto24 (SEQ ID NO:8)) reflects the interaction of the ligand with soluble receptor.
(§2) 293 HEK cells overexpressing zcytor19 were transfected as follows: 700,000 293 cells/well (6 well plates) were plated approximately 18 h prior to transfection in 2 milliliters DMEM+10% fetal bovine serum. Per well, 1 microgram pISRE-Luciferase DNA (Stratagene) and 1 microgram pIRES2-EGFP DNA (Clontech,) were added to 6 microliters Fugene 6 reagent (Roche Biochemicals) in a total of 100 microliters DMEM. This transfection mix was added 30 minutes later to the pre-plated 293 cells. Twenty-four hours later the transfected cells were removed from the plate using trypsin-EDTA and replated at approximately 25,000 cells/well in 96 well microtiter plates. Approximately 18 h prior to ligand stimulation, media was changed to DMEM+0.5% FBS.
(§3) The signal transduction reporter assays were done as follows: Following an 18 h incubation at 37° C. in DMEM+0.5% FBS, transfected cells were stimulated with 10 ng/ml zcyto20, zcyto2l or zcyto24 and 10 micrograms/ml of the following soluble receptors; human zcytor19-Fc homodimer, human zcytor19-Fc/human CRF2-4-Fc heterodimer, human CRF2-4-Fc homodimer, murine zcytor19-Ig homodimer. Following a 4-hour incubation at 37° C., the cells were lysed, and the relative light units (RLU) were measured on a luminometer after addition of a luciferase substrate. The results obtained are shown as the percent inhibition of ligand-induced signaling in the presence of soluble receptor relative to the signaling in the presence of PBS alone.

zcyto24 = molecular target: T2, zcyto24; assay: Soluble receptor inhibition of ligand-induced ISRE signaling, 293 HEK cells overexpressing zcytor19: zcyto24; format: cell-based; details: ligand Zcyto24 10 ng/ml; soluble receptor 10 micrograms/ml; 4-hour
Description: as §1, §2, §3

zcyto21 = zcyto21 (Homo sapiens, UniProt Q8IU54); assay: Soluble receptor inhibition of ligand-induced ISRE signaling, 293 HEK cells overexpressing zcytor19: zcyto21; format: cell-based; details: ligand Zcyto21 10 ng/ml; soluble receptor 10 micrograms/ml; 4-hour
Description: as §1, §2, §3

[1] = test system: ISG gene expression (OAS, Pkr, Mx1) in liver, spleen and blood; assay: ISG gene expression in liver, spleen and blood of injected mice (real-time PCR); format: in vivo, mouse; details: liver, 100 μg i.v.; for PKR: mice (Naive 3.70); for OAS: mice (Naive 6.60); for Mx1: mice (Naive 10.98)
Protocol: Mice were sacrificed at various time points (1 hr-48 hr). Spleens and livers were isolated from mice, and RNA was isolated. RNA was also isolated from the blood cells. The cells were pelleted and RNA isolated from pellets using RNAEasy®-kit (Qiagen). RNA was treated with DNase (Amicon) to rid RNA of any contaminating DNA. cDNA was generated using Perkin-Elmer RT mix (Perkin-Elmer). ISG gene induction was measured by real-time PCR using primers and probes specific for mouse OAS, Pkr and Mx1. To obtain quantitative data, HPRT real-time PCR was duplexed with ISG PCR. A standard curve was calculated using known amounts of IFN-stimulated mouse PBLs. All data are shown as expression relative to internal HPRT expression.
Results shown are fold expression relative to HPRT gene expression. […] The data shown is the average expression from 5 different animals/group.
Mice were injected with 100 μg of proteins i.v. Data shown is fold expression over HPRT expression from livers of mice. Similar data was obtained from blood and spleens of mice.

Row | Molecule | Percent Inhibition of Ligand-induced ISRE Signaling by Soluble Receptors (zcyto20) [%] | inhibition of zcyto20, zcyto21 and zcyto24-induced signaling (zcyto20) | Percent Inhibition of Ligand-induced ISRE Signaling by Soluble Receptors (zcyto24) [%] | Percent Inhibition of Ligand-induced ISRE Signaling by Soluble Receptors (zcyto21) [%] | also measured
1 | HuCRF2-4-Fc: human CRF2-4-Fc homodimeric soluble receptor | 80 | No significant effects | 82 | 79 | –
2 | Huzcytor19-Fc/huCRF2-4-Fc: human zcytor19-Fc/human CRF2-4-Fc heterodimeric soluble receptor | 16 | – | 47 | 16 | –
3 | Muzcytor19-Ig: murine zcytor19-Ig homodimeric soluble receptor (protein, left off: small tags and cut ends, murine zcytor19-Ig homodimeric soluble receptor) RPRLAPPRNVTLFSQNFTVYLTWLPGLGSPPNVTYFVTYQSYIKTGWRPVEHCAGIKALVCPLMCLKKLNLYSKFKGRVQAASAHGRSPRVESRYLEYLFDVELAPPTLVLTQMEKILRVNATYQLPPCMPSLELKYQVEFWKEGLGSKTLFPDTPYGQPVQIPLQQGASRRHCLSARTVYTLIDIKYSQFSEPSCIFLEAPGDKRA | 91 | No significant effects | 89 | 103 | –
4 | Huzcytor19-Fc: human zcytor19-Fc homodimeric soluble receptor (protein, left off: a dimerising Fc or GST, human zcytor19-Fc homodimeric soluble receptor) RPRLAPPQNVTLLSQNFSVYLTWLPGLGNPQDVTYFVAYQSSPTRRRWREVEECAGTKELLCSMMCLKKQDLYNKFKGRVRTVSPSSKSPWVESEYLDYLFEVEPAPPVLVLTQTEEILSANATYQLPPCMPPLDLKYEVAFWKEGAGNKTLFPVTPHGQPVQITLQPAASEHHCLSARTIYTFSVPKYSKFSKPTCFLLEVPEAN | 92 | – | 90 | 45 | –
5 | MetIL-29-PEG: E. coli derived IL-29 with N-terminal Met, conjugated to PEG (conjugate, UniProt Q8IU54 20-200, looked up, N-terminal Met; PEG, E. coli derived IL-29 with N-terminal Met, conjugated to PEG) Interferon lambda-1: GPVPTSKPTTTGKGCHIGRFKSLSPQELASFKKARDALEESLKLKNWSCSSPVFPGNWDLRLLQVRERPVALEAELALTLKVLEAAAGPALEDVLDQPLHTLHHILSQLQACIQPQPTAGPRPRGRLHHWLHRLQEAPKKESAGCLEASVTFNLFRLLTRDLKYVADGNLCLRTSTHPEST | – | – | – | – | PKR ([1]; 3 hr): 18.24 fold expression over HPRT expression; OAS ([1]; 3 hr): 91.29 fold expression over HPRT expression; Mx1 ([1]; 3 hr): 537.51 fold expression over HPRT expression; PKR ([1]; 6 hr): 13.93 fold expression over HPRT expression; OAS ([1]; 6 hr): 65.93 fold expression over HPRT expression; Mx1 ([1]; 6 hr): 124.99 fold expression over HPRT expression; PKR ([1]; 12 hr): 4.99 fold expression over HPRT expression; OAS ([1]; 12 hr): 54.04 fold expression over HPRT expression; Mx1 ([1]; 12 hr): 33.58 fold expression over HPRT expression; PKR ([1]; 24 hr): 3.77 fold expression over HPRT expression; OAS ([1]; 24 hr): 20.81 fold expression over HPRT expression; Mx1 ([1]; 24 hr): 35.82 fold expression over HPRT expression
